Data on one molecule can be found in US9127040B2, “Regulation of sodium channels by PLUNC proteins” (The University of North Carolina at Chapel Hill, priority 2011, dated 2015).

The assay deals with T1, α and γ ENaC (Rattus norvegicus, UniProt P37089+P37090+P37091).
T1 construct: expressed in transfected cells; host or cells: Xenopus oocytes (cRNA injection; with or without V5-SPLUNC1 and CAP2)
T1 sequence (P37089 1-698): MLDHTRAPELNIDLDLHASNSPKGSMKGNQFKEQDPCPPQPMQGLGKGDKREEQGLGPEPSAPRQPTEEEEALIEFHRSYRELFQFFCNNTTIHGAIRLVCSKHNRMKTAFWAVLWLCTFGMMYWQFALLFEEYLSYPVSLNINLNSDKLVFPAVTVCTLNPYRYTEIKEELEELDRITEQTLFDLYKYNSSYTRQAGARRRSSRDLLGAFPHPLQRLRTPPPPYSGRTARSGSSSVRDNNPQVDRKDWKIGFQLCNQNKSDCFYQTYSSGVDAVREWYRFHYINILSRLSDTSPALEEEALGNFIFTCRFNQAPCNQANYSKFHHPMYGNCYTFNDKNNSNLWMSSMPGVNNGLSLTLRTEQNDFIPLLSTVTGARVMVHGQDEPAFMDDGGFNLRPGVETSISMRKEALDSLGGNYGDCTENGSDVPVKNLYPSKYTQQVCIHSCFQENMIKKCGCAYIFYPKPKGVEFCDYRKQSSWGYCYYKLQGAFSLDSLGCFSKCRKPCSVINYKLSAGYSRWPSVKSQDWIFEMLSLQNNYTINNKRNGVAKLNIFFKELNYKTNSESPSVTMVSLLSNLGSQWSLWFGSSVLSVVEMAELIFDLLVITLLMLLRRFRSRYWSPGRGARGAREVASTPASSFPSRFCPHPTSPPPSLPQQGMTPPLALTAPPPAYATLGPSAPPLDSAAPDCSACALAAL
T1 sequence (P37090 1-638): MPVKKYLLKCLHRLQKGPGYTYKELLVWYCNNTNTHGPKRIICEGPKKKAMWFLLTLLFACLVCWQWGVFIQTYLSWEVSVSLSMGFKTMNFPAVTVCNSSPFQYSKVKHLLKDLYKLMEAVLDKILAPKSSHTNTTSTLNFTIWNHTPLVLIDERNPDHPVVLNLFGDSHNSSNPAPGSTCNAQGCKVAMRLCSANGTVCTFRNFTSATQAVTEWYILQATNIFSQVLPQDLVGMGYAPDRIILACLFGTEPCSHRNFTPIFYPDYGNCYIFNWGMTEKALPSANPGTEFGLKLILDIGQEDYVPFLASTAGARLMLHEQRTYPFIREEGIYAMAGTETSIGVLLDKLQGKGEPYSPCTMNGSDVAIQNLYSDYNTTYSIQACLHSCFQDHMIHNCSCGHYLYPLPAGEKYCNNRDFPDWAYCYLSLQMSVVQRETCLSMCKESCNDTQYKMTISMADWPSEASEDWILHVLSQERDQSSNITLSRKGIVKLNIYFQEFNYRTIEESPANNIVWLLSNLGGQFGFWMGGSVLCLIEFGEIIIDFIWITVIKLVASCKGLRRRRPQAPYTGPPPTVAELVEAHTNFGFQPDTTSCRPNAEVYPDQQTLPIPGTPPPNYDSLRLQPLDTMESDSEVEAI
T1 sequence (P37091 1-650): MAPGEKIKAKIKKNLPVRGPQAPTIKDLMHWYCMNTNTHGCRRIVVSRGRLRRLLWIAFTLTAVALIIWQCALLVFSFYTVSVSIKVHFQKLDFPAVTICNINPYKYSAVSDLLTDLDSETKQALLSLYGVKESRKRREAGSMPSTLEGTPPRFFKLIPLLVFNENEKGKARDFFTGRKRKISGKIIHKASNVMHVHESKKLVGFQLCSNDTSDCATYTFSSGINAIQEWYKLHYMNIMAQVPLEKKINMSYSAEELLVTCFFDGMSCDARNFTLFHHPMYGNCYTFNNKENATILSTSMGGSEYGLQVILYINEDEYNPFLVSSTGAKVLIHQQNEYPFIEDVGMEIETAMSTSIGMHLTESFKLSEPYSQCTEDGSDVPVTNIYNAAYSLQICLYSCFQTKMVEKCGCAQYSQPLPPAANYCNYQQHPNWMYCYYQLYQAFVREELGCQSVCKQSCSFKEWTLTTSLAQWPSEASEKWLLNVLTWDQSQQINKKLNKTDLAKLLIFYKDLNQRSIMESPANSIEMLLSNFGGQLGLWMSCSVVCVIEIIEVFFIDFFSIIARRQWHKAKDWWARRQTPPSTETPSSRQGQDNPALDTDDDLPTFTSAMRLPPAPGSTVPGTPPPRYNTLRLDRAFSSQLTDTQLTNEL
The assay is described as follows: Western blot of ENaC cleavage by CAP2 in Xenopus oocytes. In kind it is cell-based. The conditions noted are these: αβγENaC, CAP2 and SPLUNC1 co-expressed in oocytes. The protocol: Xenopus oocytes were injected with either HA-N-Terminus or V5-C-Terminus (HA-NT/V5-CT) tagged subunits in combination with wild type (WT) untagged rat αβγENaC subunits (0.3 ng cRNA each) with or without V5-tagged SPLUNC1 and CAP2 (1 ng cRNA each). After 24 h, 40 eggs per experimental condition were lysed with buffer containing (in mM): 20 Tris, 50 NaCl, 50 NaF, 10 β-glycerophosphate, 5 Na4P2O7 pyrophosphate, 1 EDTA, pH 7.5 and protease inhibitors (complete, Roche), aprotinin (Sigma). Cell lysates were prepared by passing the eggs through a 27G1/2 needle twice and by centrifugation at 3,600 rpm for 10 minutes at 4° C. […]
Proteolytic cleavage of α and γ subunits is required for ENaC activation (Mueller et al., J. Biol. Chem. 282:33475 (2007); Adebamiro et al., J. Gen. Physiol. 130:611 (2007)) and since CAP2 is highly expressed in human bronchial epithelial cultures (Tarran et al., J. Gen. Physiol. 127:591 (2006)), we tested whether SPLUNC1 could alter α and γ ENaC cleavage by CAP2. Due to the relative scarcity of purified rSPLUNC1, we elected to co-express SPLUNC1 and ENaC rather than use rSPLUNC1 for subsequent oocyte studies since SPLUNC1 is secreted at sufficient quantities from oocytes to inhibit ENaC (FIG. 5). When αβγENaC and CAP2 were co-expressed in oocytes, both full-length ENaC subunits and cleaved α and γ fragments were detected with a V5 antibody (FIG. 7A, 7B). […]
On the technique in general: In western blotting, separated proteins are transferred to a membrane and probed.

B1: SPLUNC1: human SPLUNC1 (SEQ ID NO:1), 256 amino acid secreted PLUNC family protein; rSPLUNC1 is the purified V5/6His-tagged recombinant form (protein, listed as Homo sapiens)
chain: MFQTGGLIVFYGLLAQTMAQFGGLPVPLDQTLPLNVNPALPLSPTGLAGSLTNALSNGLLSGGLLGILENLPLLDILKPGGGTSGGLLGGLLGKVTSVIPGLNNIIDIKVTDPQLLELGLVQSPDGHRLYVTIPLGIKLQVNTPLVGASLLRLAVKLDITAEILAVRDKQERIHLVLGDCTHSPGSLQISLLDGLGPLPIQGLLDSLTGILNKVLPELVQGNVCPLVNEVLRGLDITLVHDIVNMLIHGLQFVIKV
modifications: V5/6His tag in recombinant form
notes: rSPLUNC1 is the purified V5/6His-tagged recombinant form
Turning to B1, the “α and γ ENaC cleavage by CAP2” value was “only full-length α and γ ENaC subunits could be observed”.
